± gives the uncertainty stated by the source.
Test: self-splicing fitness, log relative to wild type (ln ratio); higher = more splicing; Tetrahymena group I intron in knt gene, E. coli kanamycin selection, DiMSum; sequences stand for … in CUCUCU…GGAGGGAAAAGUUAUCAGGCAUGCACCUGGUAGCUAGUCUUUAAACCAAUAGAUUGCAUCGGUUUAAAAGGCAAGACCGUCAAAUUGCGGGAAAGGGGUCAACAGCCGUUCAGUACCAAGUCUCAGGGGAAACUUUGAGAUGGCCUUGCAAAGGGUAUGGUAAUAAGCUGACGGACAUGGUCCUAACCACGCAGCCAAGUCCUAAGUCAACAGAUCUUCUGUUGAUAUGGAUGCAGUUCACAGACUAAAUGUCGGUCGGGGAAGAUGUAUUCUUCUCAUAAGAUAUAGUCGGACCUCUCCUUAAUGGGAGCUAGCGGAUGAAGUGAUGCAACACUGGAGCCGCUGGGAACUAAUUUGUAUGCGAAAGUAUAUUGAUUAGUUUUGGAGUACUCGUGGUCG
Summary of the method: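 Fitness was computed with DiMSum as the error-weighted combination of replicate fold changes, kanamycin versus none, each normalised to wild type. The library randomised all eight intron nucleotides of the P1ex region, with the intron placed in the knt kanamycin-resistance gene on pET-22b(+) in E. coli BL21(DE3). Six replicate transformations were grown overnight at 37°C or 30°C on LB agar with or without 25 μg/mL kanamycin, plus 100 μg/mL carbenicillin, 50 μM IPTG and 0.2% rhamnose. Pooled colonies were amplicon-sequenced on an Illumina HiSeq 2500.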

| Sequence | self-splicing fitness (ln) (30 °C) | self-splicing fitness (ln) (37 °C) |
| --- | --- | --- |
| CUCAAGCAAUAUUACGCUCA | -3.34 ± 0.26 | -2.49 ± 0.24 |
| CUCAAGCAAUAUUACGCUGU | -3.74 ± 0.21 | -1.59 ± 0.23 |
| CUCAAGCAAUAUUACGGAUC | -3.98 ± 0.43 | -2.19 ± 0.27 |
| CUCAAGCAAUAUUACGGCAA | -3.15 ± 0.32 | -1.32 ± 0.24 |
| CUCAAGCAAUAUUACGGCCG | -1.2 ± 0.13 | -1.69 ± 0.24 |
| CUCAAGCAAUAUUACGGGGC | -4.64 ± 0.41 | -3.31 ± 0.33 |
| CUCAAGCAAUAUUACGGGUC | -4.31 ± 0.17 | -2.48 ± 0.12 |
| CUCAAGCAAUAUUACGGUCU | -3.13 ± 0.16 | -3.56 ± 0.39 |
| CUCAAGCAAUAUUACGUAAA | -3.37 ± 0.18 | -2.48 ± 0.25 |
| CUCAAGCAAUAUUACGUAGU | -3.43 ± 0.17 | -1.91 ± 0.14 |
| CUCAAGCAAUAUUACGUGAU | -1.25 ± 0.053 | -0.372 ± 0.067 |
| CUCCAGCAAUAUUACGAAAA | -2.78 ± 0.28 | -1.89 ± 0.3 |
| CUCCAGCAAUAUUACGAAGC | -3.5 ± 0.23 | -2.6 ± 0.32 |
| CUCCAGCAAUAUUACGACUC | -3.66 ± 0.24 | -2.24 ± 0.38 |
| CUCCAGCAAUAUUACGAGGG | -3.65 ± 0.17 | -2.89 ± 0.25 |
| CUCCAGCAAUAUUACGAUCG | -1.49 ± 0.063 | -0.922 ± 0.075 |
| CUCCAGCAAUAUUACGAUGG | -4.58 ± 0.32 | -3.19 ± 0.26 |
| CUCCAGCAAUAUUACGCAAG | -3.52 ± 0.26 | -1.41 ± 0.18 |
| CUCCAGCAAUAUUACGCACU | -2.56 ± 0.14 | -3.09 ± 0.32 |
| CUCCAGCAAUAUUACGCAGC | -2.51 ± 0.15 | -2.25 ± 0.49 |
| CUCCAGCAAUAUUACGCAUC | -4.12 ± 0.42 | -2.4 ± 0.37 |
| CUCCAGCAAUAUUACGCGCC | -2.7 ± 0.29 | -2.05 ± 0.38 |
| CUCCAGCAAUAUUACGCGUA |  | -2.56 ± 0.25 |
| CUCCAGCAAUAUUACGCGUC | -3.46 ± 0.28 |  |
| CUCCAGCAAUAUUACGCUUU | -2.78 ± 0.19 | -2.8 ± 0.26 |
| CUCCAGCAAUAUUACGGAAU | -4.1 ± 0.21 | -2.27 ± 0.16 |

| Sequence | self-splicing fitness (ln) (30 °C) | self-splicing fitness (ln) (37 °C) |
| --- | --- | --- |
| CUCCAGCAAUAUUACGGACA | -0.816 ± 0.14 | -0.868 ± 0.15 |
| CUCCAGCAAUAUUACGGCUG | -2.12 ± 0.22 | -2.99 ± 0.4 |
| CUCCAGCAAUAUUACGGGAC | -2.79 ± 0.11 | -2.17 ± 0.14 |
| CUCCAGCAAUAUUACGGUCU | -4 ± 0.23 | -2.31 ± 0.2 |
| CUCCAGCAAUAUUACGUACA | -3.85 ± 0.19 | -2.08 ± 0.2 |
| CUCCAGCAAUAUUACGUAGC | -2.49 ± 0.2 | -2.36 ± 0.25 |
| CUCCAGCAAUAUUACGUCGC | -4.34 ± 0.23 | -2.96 ± 0.23 |
| CUCCAGCAAUAUUACGUGGA | -3.5 ± 0.18 | -2.7 ± 0.16 |
| CUCCAGCAAUAUUACGUUGC | -3.98 ± 0.27 | -1.77 ± 0.15 |
| CUCGAGCAAUAUUACGAACU | -3.1 ± 0.26 | -2.8 ± 0.43 |
| CUCGAGCAAUAUUACGAAGC | -3.7 ± 0.16 | -3.28 ± 0.21 |
| CUCGAGCAAUAUUACGAUGG | -1.83 ± 0.083 | -1.61 ± 0.1 |
| CUCGAGCAAUAUUACGAUUG | -2.53 ± 0.34 | -2.04 ± 0.3 |
| CUCGAGCAAUAUUACGCAUA | -2.34 ± 0.26 |  |
| CUCGAGCAAUAUUACGCGAU | -3.25 ± 0.17 | -2.96 ± 0.23 |
| CUCGAGCAAUAUUACGCGUG | -3.43 ± 0.26 | -2.03 ± 0.19 |
| CUCGAGCAAUAUUACGCGUU | -3.72 ± 0.31 | -0.305 ± 0.2 |
| CUCGAGCAAUAUUACGCUAU | -2.92 ± 0.26 | -2.8 ± 0.26 |
| CUCGAGCAAUAUUACGGAUC |  | 0.135 ± 0.27 |
| CUCGAGCAAUAUUACGGAUU | -3.59 ± 0.19 | -2.98 ± 0.27 |
| CUCGAGCAAUAUUACGGUGA | -2.66 ± 0.19 | -0.793 ± 0.16 |
| CUCGAGCAAUAUUACGUAUC | -4.31 ± 0.3 | -2.78 ± 0.29 |
| CUCGAGCAAUAUUACGUCAC | -3.1 ± 0.3 | -1.11 ± 0.22 |
| CUCGAGCAAUAUUACGUCGA | -3.29 ± 0.28 | -1.67 ± 0.24 |
| CUCUAGCAAUAUUACGAAAU | -3.13 ± 0.21 | -3.18 ± 0.27 |
| CUCUAGCAAUAUUACGACAU | -3.866 ± 0.033 | -3.6 ± 0.044 |

| Sequence | self-splicing fitness (ln) (30 °C) | self-splicing fitness (ln) (37 °C) |
| --- | --- | --- |
| CUCUAGCAAUAUUACGCAAC | -3.63 ± 0.2 | -3.59 ± 0.28 |
| CUCUAGCAAUAUUACGCACU | -2.77 ± 0.31 | -3.07 ± 0.25 |
| CUCUAGCAAUAUUACGCCAG | -2.53 ± 0.32 |  |
| CUCUAGCAAUAUUACGCCUC | -1.49 ± 0.3 |  |
| CUCUAGCAAUAUUACGCGAA | -2.68 ± 0.24 | -3.56 ± 0.28 |
| CUCUAGCAAUAUUACGGAGA | -1.93 ± 0.47 | -0.951 ± 0.27 |
| CUCUAGCAAUAUUACGGAGG | -2.14 ± 0.2 | -1.32 ± 0.21 |
| CUCUAGCAAUAUUACGGUAC | -2.88 ± 0.39 | -4.12 ± 0.46 |
| CUCUAGCAAUAUUACGGUAG | -4.49 ± 0.33 | -1.79 ± 0.23 |
| CUCUAGCAAUAUUACGGUGU | -3 ± 0.19 | -2.63 ± 0.3 |
| CUCUAGCAAUAUUACGGUUG | -1.83 ± 0.12 | -0.869 ± 0.14 |
| CUCUAGCAAUAUUACGUAAA | -3.71 ± 0.35 | -0.971 ± 0.17 |
| CUCUAGCAAUAUUACGUCAC | -2.66 ± 0.19 |  |
| CUCUAGCAAUAUUACGUGGG | -4.79 ± 0.29 | -2.73 ± 0.18 |
| CUCUAGCAAUAUUACGUUAG | -3.81 ± 0.24 | -2.13 ± 0.22 |
| CUCUAGCAAUAUUACGUUUU | -4.1 ± 0.22 | -3.15 ± 0.16 |
| CUGAAGCAAUAUUACGAAAA | -4.17 ± 0.25 | -2.59 ± 0.22 |
| CUGAAGCAAUAUUACGAGGA | -3.46 ± 0.17 | -1.95 ± 0.2 |
| CUGAAGCAAUAUUACGCAAA | -4.27 ± 0.42 |  |
| CUGAAGCAAUAUUACGCAUU | -2.24 ± 0.12 | -2.45 ± 0.17 |
| CUGAAGCAAUAUUACGCUAU | -3.68 ± 0.16 | -2.04 ± 0.14 |
| CUGAAGCAAUAUUACGCUCA | -3.73 ± 0.37 | -0.356 ± 0.22 |
| CUGAAGCAAUAUUACGCUGG | -3.37 ± 0.33 | -2.3 ± 0.34 |
| CUGAAGCAAUAUUACGGACU | -2.85 ± 0.22 | -0.495 ± 0.17 |
| CUGAAGCAAUAUUACGGAGG | -3.67 ± 0.21 | -1.81 ± 0.24 |
| CUGAAGCAAUAUUACGGCAA | -3.04 ± 0.2 | -1.21 ± 0.2 |

From the supplement of paper PMC7877785
